Here are results for one molecule from paper PMC7094245.

This series has as its target T1, IBV N protein amino-terminal region (region 1, NI) (Infectious bronchitis virus (strain …, UniProt P69598 1-133)).
T1 sequence: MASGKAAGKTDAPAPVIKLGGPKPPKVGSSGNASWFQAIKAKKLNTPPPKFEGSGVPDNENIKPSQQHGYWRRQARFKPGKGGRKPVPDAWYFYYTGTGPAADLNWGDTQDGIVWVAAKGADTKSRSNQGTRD
The experiment in a line: SPR.

B1: IBV leader RNA (contains TRS) (ssRNA)
RNA: ACUUAAGAUAGAUAUUAAUAUAUAUCUAUUACACUAGCCUUGCGCUAGAUUUUUAACUGAACAAUACAGACCUAAAAAGUCUGUUUGAUG
On to B1, for which the Kd is 1430 nM.
